These results are taken from article PMC10624832.

The target in test [1] is Hsp70 (UniProt P11142).
Test [2] addresses Hsp70 (UniProt P11142). The source holds these as a separate data set.
Test [3] deals with Hsp70 (UniProt P11142). This is another data set of the same source.
The target in test [4] is Hsp70 T204A,S494C-AF488 (C267A, C574A, C603A). In words: fluorescence polarisation; steady-state fluorescence anisotropy; 100 nM Hsp70 T204A,S494C-AF488 titrated with 0-1.0 mM full-length DNAJB6 WT or mutants; 20 min at 37 °C; 50 mM HEPES pH 8.0, 200 mM KCl, 10 mM MgCl, 2 mM ATP; one-site binding model. (In general: In fluorescence polarisation assays a small probe gives low polarisation when free and higher when bound to something large.)

For test [5], the target named is Hsp70 (UniProt P11142). This is another data set of the same source.

One may read the Kd as a measure of binding affinity in units of concentration. A lower Kd goes with a tighter complex.

DNAJB6^JD (res. 1-72), sequence (O75190 1-72): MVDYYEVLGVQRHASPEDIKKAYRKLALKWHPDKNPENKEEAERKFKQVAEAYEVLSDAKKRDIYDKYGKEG
DNAJB6^JD-GF WT (res. 1-109), sequence (O75190 1-109): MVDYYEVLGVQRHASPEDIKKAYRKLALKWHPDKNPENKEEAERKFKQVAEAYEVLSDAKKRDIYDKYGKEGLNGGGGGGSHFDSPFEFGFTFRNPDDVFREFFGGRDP
DNAJB6^WT (isoform b), full-length oligomeric, O75190-2 1-241 (natural protein), sequence (O75190 other isoform, or with tags, fused parts or gaps): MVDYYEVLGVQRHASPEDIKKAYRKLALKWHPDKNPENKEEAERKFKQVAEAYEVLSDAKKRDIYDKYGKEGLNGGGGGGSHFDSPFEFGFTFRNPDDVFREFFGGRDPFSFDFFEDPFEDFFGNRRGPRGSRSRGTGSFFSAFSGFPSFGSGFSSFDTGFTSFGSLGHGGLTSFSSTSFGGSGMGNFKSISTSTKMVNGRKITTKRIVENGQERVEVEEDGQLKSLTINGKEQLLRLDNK

In the test with Hsp70 [1], “DNAJB6^JD (res. 1-72) (from UniProt O75190 1-72) (domain or fragment)” came in with a steady-state ATPase activity of Hsp70 (initial rate of phosphate release, PBP fluorescence); 0.25 μM Hsp70, 0.25 μM DNAJB6 variant of 1.74 nM Pi min^−1.
Regarding “DNAJB6^JD-GF A50V (from UniProt O75190 1-109) (domain or fragment)”, in the test with Hsp70 [2], the steady-state ATPase activity of Hsp70 (initial rate of phosphate release); roughly 6-8-fold increase amounted to 1.24 nM Pi min^−1.
For the substance “DNAJB6^JD-GF E54A (from UniProt O75190 1-109) (domain or fragment)”, the steady-state ATPase activity of Hsp70, fold enhancement of ATP hydrolysis rate with Hsp70 [2] stood at 4 fold.
Regarding “DNAJB6^JD-GF F100V (from UniProt O75190 1-109) (domain or fragment)”, the steady-state ATPase activity of Hsp70 (initial rate of phosphate release); roughly 6-8-fold increase in the test with Hsp70 [2] came out at 1.64 nM Pi min^−1.
As to “DNAJB6^JD-GF P96R (from UniProt O75190 1-109) (domain or fragment)”, the steady-state ATPase activity of Hsp70, fold enhancement of ATP hydrolysis rate in the test with Hsp70 [2] came to 4 fold.
In turn, “DNAJB6^JD-GF WT (res. 1-109) (from UniProt O75190 1-109) (domain or fragment)” showed a steady-state ATPase activity of Hsp70, fold activation over Hsp70 alone in the test with Hsp70 [3] of 1.6 fold.
“DNAJB6^WT (isoform b), full-length oligomeric (from UniProt O75190-2 1-241) (natural protein)”: in test [4], the equilibrium dissociation constant (Kd) is greater than 10000 µM.
“DNAJB6^WT (isoform b), full-length oligomeric, O75190-2 1-241 (natural protein)” had a steady-state ATPase activity of Hsp70 with full-length oligomeric DNAJB6, fold activation in the test with Hsp70 [5] of 1.4 fold.
Turning to “full-length DNAJB6 A50V (from UniProt O75190-2 1-241) (natural protein)”, the Kd in test [4] was determined as 9 µM. In other words, the single-digit micromolar range.
Take “full-length DNAJB6 F91I (from UniProt O75190-2 1-241) (natural protein)”: the Kd in test [4] was determined as 600 µM. This Kd is about 67-fold higher than that of the substance before.
In test [4], “full-length DNAJB6 F93L (from UniProt O75190-2 1-241) (natural protein)” gave a Kd of 290 µM.
In test [4], “full-length DNAJB6 F100V (from UniProt O75190-2 1-241) (natural protein)” showed a Kd of 1.5 µM. Compared with the last substance, the Kd is about 190-fold lower.
Still for that read-out and setting: the same measure for “full-length DNAJB6 P96R (from UniProt O75190-2 1-241) (natural protein)”: 47 µM.
